From patent US20210155689A1 (SHANGHAI PHARMAEXPLORER, published 2021)

B1: 556F6B8 (mouse antibody purified from hybridoma) (antibody, V domains shown)
VH: RVQLKQSGPGLVQPSQSLSITCTVSGFSLIKYGVHWVRQSPGEGLEWLGVIWRGGITDYNAAFMSRLSITKDNSKSQVFFKMNSLQADDTAIYYCAKWDGPLAMDYWGQGTSVTVSS
VL: DIVMTQSHKFLSTSVGDRVSITCKASQDVGTTVAWYQQKPGQSPKLLIYWASTRHTGVPDRFTGSGSGTDFTLTISNVQSEDLADYFCQQYSSYPYTFGGGTKLEIK
notes: also called mAb123-556F6B8
B2: 556F6B8 (LAG-3 mouse-human chimeric antibody) (antibody, V domains shown)
VH: RVQLKQSGPGLVQPSQSLSITCTVSGFSLIKYGVHWVRQSPGEGLEWLGVIWRGGITDYNAAFMSRLSITKDNSKSQVFFKMNSLQADDTAIYYCAKWDGPLAMDYWGQGTSVTVSS
VL: DIVMTQSHKFLSTSVGDRVSITCKASQDVGTTVAWYQQKPGQSPKLLIYWASTRHTGVPDRFTGSGSGTDFTLTISNVQSEDLADYFCQQYSSYPYTFGGGTKLEIK
notes: also called 556F8B8
B3: 405B8H3 (mouse antibody purified from hybridoma) (antibody, V domains shown)
VH: QVQLQQSGAELVRPGASVTLSCKASGYTFTDYEMHWVKQTPVHGLEWIGATDPETGNSAYNQKFKGKAIMTADKSSSTAYMELRSLTSEDSAVYYCISTGWNDWGQGTSLTVSS
VL: DIKMTQSPSSMYASLGERVTITCKASQDINSYLSWFQQKPGKSPKTLIYRADRLLDGVPSRFSGSGSGQDYSLTISSLEYGDMGIYYCLQYDEFPYTFGGGTKLEIK
notes: also called mAb103-405B8H3; 405B81-13
B4: 405B8H3 (LAG-3 mouse-human chimeric antibody) (antibody, V domains shown)
VH: QVQLQQSGAELVRPGASVTLSCKASGYTFTDYEMHWVKQTPVHGLEWIGATDPETGNSAYNQKFKGKAIMTADKSSSTAYMELRSLTSEDSAVYYCISTGWNDWGQGTSLTVSS
VL: DIKMTQSPSSMYASLGERVTITCKASQDINSYLSWFQQKPGKSPKTLIYRADRLLDGVPSRFSGSGSGQDYSLTISSLEYGDMGIYYCLQYDEFPYTFGGGTKLEIK
notes: also called mouse-human chimeric antibody 405B8H3
B5: 105F1E10 (mouse antibody purified from hybridoma) (antibody, V domains shown)
VH: EVQLQQSGPELVKPGASVKMSCRASGYTFTDFKMHWMKQSHGKSLEWIGYIAPNNGGTAYNQKFRGKATLTVNESSNTAYMELRSLTSEDSAVYYCVDWDDVDYWGQGTTLTVSS
VL: DIKMTQSPSSMYASLGERVTITCKASQDINSYLSWFQQKSGKSPKTLIYRANRLVDGVPSRFSGSGSGQDYSLTISSLEYEDMGIYYCLQYVEFPLTFGAGTKLELK
notes: also called mAb009-105F1E10
B6: 105F1E10 (LAG-3 mouse-human chimeric antibody) (antibody, V domains shown)
VH: EVQLQQSGPELVKPGASVKMSCRASGYTFTDFKMHWMKQSHGKSLEWIGYIAPNNGGTAYNQKFRGKATLTVNESSNTAYMELRSLTSEDSAVYYCVDWDDVDYWGQGTTLTVSS
VL: DIKMTQSPSSMYASLGERVTITCKASQDINSYLSWFQQKSGKSPKTLIYRANRLVDGVPSRFSGSGSGQDYSLTISSLEYEDMGIYYCLQYVEFPLTFGAGTKLELK
B7: 409B11E12 (LAG-3 mouse-human chimeric antibody) (antibody, V domains shown)
VH: QVQLQQSGAELVRPGASVTLSCKASGYTFTDYEMHWVKQTTVHGLEWIGATDPETSYSAYNQKFKGKAILTADKSSSTAYMELRSLTSEDSAVYYCIATGWNDWGQGTSLTVSS
VL: DLKMTQSPSSMYASLGERVTITCKASQDINSYLSWFQQKPGKSPKTLIYRANRLLDGVPSRFSGSGSGQDYSLTISSLEYEDMGIYYCLQYDEFPYTFGGGTKLEIK
B8: 409D4E10 (LAG-3 mouse-human chimeric antibody) (antibody, V domains shown)
VH: QVQLQQSGAELVRPGASVTLSCKASGNTFTDYEMHWVKQTPVHGLEWIGATDPETDNTAYNQKFKGKAILTTDKSSSTAYMELRSLTSEDSAVYYCITSGWNDWGQGTSLTVSS
VL: DIKMTQSPSSMYASLGERVTITCKASQDINSYLSWFQQKPGKSPKTLIYRANRLLDGVPSRFSGSGSGQDYSLTISSLEYEDMGIYYCLQYNEFPYTFGGGTKLEIK
B9: 409D4E10 (mouse antibody purified from hybridoma) (antibody, V domains shown)
VH: QVQLQQSGAELVRPGASVTLSCKASGNTFTDYEMHWVKQTPVHGLEWIGATDPETDNTAYNQKFKGKAILTTDKSSSTAYMELRSLTSEDSAVYYCITSGWNDWGQGTSLTVSS
VL: DIKMTQSPSSMYASLGERVTITCKASQDINSYLSWFQQKPGKSPKTLIYRANRLLDGVPSRFSGSGSGQDYSLTISSLEYEDMGIYYCLQYNEFPYTFGGGTKLEIK
notes: also called mAb112-409D4E10
B10: 409B11E12 (mouse antibody purified from hybridoma) (antibody, V domains shown)
VH: QVQLQQSGAELVRPGASVTLSCKASGYTFTDYEMHWVKQTTVHGLEWIGATDPETSYSAYNQKFKGKAILTADKSSSTAYMELRSLTSEDSAVYYCIATGWNDWGQGTSLTVSS
VL: DLKMTQSPSSMYASLGERVTITCKASQDINSYLSWFQQKPGKSPKTLIYRANRLLDGVPSRFSGSGSGQDYSLTISSLEYEDMGIYYCLQYDEFPYTFGGGTKLEIK
notes: also called mAb104-409B11E12

Experiments:
[1] = target: T1, monkey LAG-3 (full length, on the cell surface) (monkey, UniProt P18627 24-525 (human entry)); test: FACS, HEK293-cLAG-3; 0.013 nM
T1 construct: also called HEK293-cLAG-3; monkey LAG-3 protein on the cell surface
T1 chain: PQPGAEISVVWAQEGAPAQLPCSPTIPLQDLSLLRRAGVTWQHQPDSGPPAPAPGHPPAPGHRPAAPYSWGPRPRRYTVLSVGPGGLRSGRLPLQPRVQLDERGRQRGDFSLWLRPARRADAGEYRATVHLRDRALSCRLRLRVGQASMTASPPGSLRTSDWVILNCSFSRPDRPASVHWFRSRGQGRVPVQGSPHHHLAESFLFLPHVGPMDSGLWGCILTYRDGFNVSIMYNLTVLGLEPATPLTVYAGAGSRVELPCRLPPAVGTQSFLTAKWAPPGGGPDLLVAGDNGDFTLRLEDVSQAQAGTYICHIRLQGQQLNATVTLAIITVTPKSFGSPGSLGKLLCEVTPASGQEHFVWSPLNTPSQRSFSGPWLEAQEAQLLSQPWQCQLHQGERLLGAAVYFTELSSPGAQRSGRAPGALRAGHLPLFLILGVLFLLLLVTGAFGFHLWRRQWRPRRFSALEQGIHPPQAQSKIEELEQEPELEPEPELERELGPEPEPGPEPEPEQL
From the text: The pIRES plasmid with the monkey-derived full-length gene was transfected into the HEK293 cell line to construct a HEK293 stable cell line containing monkey LAG-3 (herein referred to as HEK293-cLAG-3 stable cell line). The HEK293-hLAG-3 stable cell line and HEK293-cLAG-3 stable cell line were expanded in a T-75 cell culture flask to a 90% confluence. The medium was aspirated, and the cells were washed with HBSS (Hanks' Balanced Salt Solution) 1-2 times, then treated with a enzyme-free cell dissociation fluid (Versene solution: Life technology) and the cells were collected. The cells were washed with HBSS buffer for 1-2 times. After counted, the cells were diluted with HBSS to 1-2×10⁶ cells per ml, added with 1% goat serum blocking solution, incubated on ice for 20-30 minutes, and then washed with HBSS for 2 times by centrifugation. The collected cells were suspended in the FACS buffer (HBSS+1% BSA) to 2×10⁶ cells/ml, added as 100 microliters per well to a 96-well FACS reaction plate, added with 100 microliters per well of the antibody sample to be tested, incubated on ice for 1-2 hours. The plate was washed twice with the FACS buffer by centrifugation, added with 100 microliters of fluorescent (Alexa 488)-labeled secondary antibodies per well, and incubated on ice for 0.5-1.0 hours. The plate was washed 2-3 times with FACS buffer by centrifugation, added with 100 μl fixative solution (4% Paraformaldehyde) per well to suspend the cells. 5-10 minutes later, it was washed 1-2 times with FACS buffer by centrifugation. The cells were suspended with 100 microliters of FACS buffer, FACS (FACSCalibur, BD) was used for detection and the results were analyzed.

[2] = target: T2, human LAG-3 protein with hFc tag (hLAG-3-hFc protein) (human, UniProt P18627 23-450); test: ELISA, hLAG-3-hFc coated; 0.6667 nM
T2 construct: also called immunogen 1; LAG-3 extracellular domain protein; not shown: human IgG Fc fragment (hFc) of the pCpC vector
T2 sequence: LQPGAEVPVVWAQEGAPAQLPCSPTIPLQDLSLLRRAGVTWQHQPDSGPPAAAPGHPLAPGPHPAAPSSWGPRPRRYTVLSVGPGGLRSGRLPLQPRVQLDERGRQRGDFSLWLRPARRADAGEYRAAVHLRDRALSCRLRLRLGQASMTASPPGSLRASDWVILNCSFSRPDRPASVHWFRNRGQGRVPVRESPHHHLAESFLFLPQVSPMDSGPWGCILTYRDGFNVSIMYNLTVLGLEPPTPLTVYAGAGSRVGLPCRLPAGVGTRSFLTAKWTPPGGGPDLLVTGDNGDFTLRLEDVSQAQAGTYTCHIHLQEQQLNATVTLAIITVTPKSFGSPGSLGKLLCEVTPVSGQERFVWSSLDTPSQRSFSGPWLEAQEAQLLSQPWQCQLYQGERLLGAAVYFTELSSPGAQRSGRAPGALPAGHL
Experimental: (§1) The plate was sealed with plastic film and incubated overnight at 4° C. The plate was washed 2 times with the plate washing solution (PBS+0.01% Tween20) on the next day, and added with the blocking solution (PBS+0.01% Tween20+1% BSA) and blocked at room temperature for 1-2 hours. The blocking solution was poured out, and the plate was added with 50-100 μl of the antibody sample to be tested to each well, incubated at 37° C. for 1-2 hours, and washed 2-3 times with a plate washing solution (PBS+0.01% Tween20). HRP (horseradish peroxidase) labeled secondary antibody was added, and the plate was incubated at 37° C. for 1-2 hours, and washed 2-3 times with a plate washing solution (PBS+0.01% Tween20). 100 μl of TMB substrate was added to each well. After incubated at room temperature for 15-30 minutes, the plate was added with 100 μl of stop solution (1.0N HCl) to each well.

[3] = target: T3, hFc tagged monkey LAG-3 protein (cLAG-3-hFc protein) (monkey; human); test: ELISA, cLAG-3-hFc coated; 6.6667 nM
T3 construct: Made in HEK293 cells; also called monkey LAG-3 extracellular domain protein; not shown: human IgG Fc fragment (hFc) of the pCpC vector
T3 chain: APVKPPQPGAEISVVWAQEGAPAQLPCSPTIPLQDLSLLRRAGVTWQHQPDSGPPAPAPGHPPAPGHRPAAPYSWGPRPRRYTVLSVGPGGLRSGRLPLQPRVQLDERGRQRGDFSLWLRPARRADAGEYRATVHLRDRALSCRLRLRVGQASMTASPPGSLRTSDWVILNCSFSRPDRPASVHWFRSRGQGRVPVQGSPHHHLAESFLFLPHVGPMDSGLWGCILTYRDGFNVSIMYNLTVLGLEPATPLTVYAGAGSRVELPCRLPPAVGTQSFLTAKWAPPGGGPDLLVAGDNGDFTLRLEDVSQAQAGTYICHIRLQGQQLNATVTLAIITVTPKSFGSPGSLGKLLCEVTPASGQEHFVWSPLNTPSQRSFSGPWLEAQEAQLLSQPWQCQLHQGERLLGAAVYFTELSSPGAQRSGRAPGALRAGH
Experimental: as §1

Binder | Mean fluorescence intensity [1] | OD450 [2] | OD450 [3]
B1 | 3.9 MFI |  | 
B2 |  | 3.76 OD450 | 3.78 OD450
B3 | 4.2 MFI |  | 
B4 |  | 3.51 OD450 | 3.55 OD450
B5 | 4.1 MFI |  | 
B6 |  | 3.46 OD450 | 3.53 OD450
B7 |  | 3.55 OD450 | 3.47 OD450
B8 |  | 3.76 OD450 | 3.79 OD450
B9 | 3.5 MFI |  | 
B10 | 3.3 MFI |  | 
